Experimental data: patent publication US20250002588A1 (DIAGONAL THERAPEUTICS, published 2025)
Numbering of substitutions follows the chain as printed.

B1: DGL639 (bispecific antibody)
chain 1: EVQLLESGGGLVQPGGSLRLSCAASGFTFSDYYMTWIRQAPGKGLEWVSSISGGSTYYADSRKGRFTISRDNSENTLYLQMNSLRAEDTAVYYCARNVTSGGYFGSFGLDLWGQGTLVTVSSGGGGSGGGGSGGGGSQSVLTQPPSASGTPGQRVTISCTGSSSNIGAGYDVHWYQQLPGTAPKLLIYRSNQRPSGVPDRFSGSKSGTSASLAISGLRSEDEADYYCSSYAGNYNLVFGGGTKLTVLDKTHTCPPCPAPEAAGAPSVFLFPPKPKDTLMISRTPEVTCVVVDVSHEDPEVKFNWYVDGVEVHNAKTKPREEQYNSTYRVVSVLTVLHQDWLNGKEYKCKVSNKALPAPIEKTISKAKGQPREPQVCTLPPSRDELTKNQVSLSCAVKGFYPSDIAVEWESNGQPENNYKTTPPVLDSDGSFFLVSKLTVDKSRWQQGNVFSCSVMHEALHNHYTQKSLSLSPGWSHPQFEK
chain 2: not shown
B2: DGL737 (bispecific antibody)
chain 1: not shown
chain 2: B1 chain 1 with N97D, V98F, T99G, S100V, G101A, Y103W, S106Q, F107Y, L109M, L111V
B3: DGL736 (bispecific antibody)
chain 1: not shown
chain 2: B1 chain 1 with N97D, V98F, T99G, S100V, G101A, Y103W, S106Q, F107Y, L109M, L111V
B4: DGL640 (bispecific antibody)
chain 1: B1 chain 1 with N97W, V98E, F104Y, F107G, D110T, L111I
chain 2: not shown
B5: DGL638 (bispecific antibody)
chain 1: B1 chain 1 with V98E, T99V, F104Y, S106E, D110S
chain 2: not shown
B6: DGL636 (bispecific antibody)
chain 1: B1 chain 1 with N97W, V98E, G101S, Y103G, F107G, D110S, L111H
chain 2: not shown
B7: DGL637 (bispecific antibody)
chain 1: B1 chain 1 with N97L, V98T, T99V, S100D, Y103G, F104Y, F107G
chain 2: not shown
B8: DGL631 (bispecific antibody)
chain 1: not shown
chain 2: EVQLLESGGGLVQPGGSLRLSCAASGFTFSNAWMNWVRQAPGKGLEWVSSISSSSSYIYYADSVKGRFTISRDNSKNTLYLQMNSLRAEDTAVYYCARAVAAGGMFWGLDQWGQGTLVTVTSSGGGGSGGGGSGGGGSQSVLTQPPSASGTPGQRVTISCSGSRSNIGSNSVHWYQQLPGTAPKLLIYGNSNRPSGVPDRFSGSKSGTSASLAISGLRSEDEADYYCQSYDSSLNDHVVFGGGTKLTVLDKTHTCPPCPAPEAAGAPSVFLFPPKPKDTLMISRTPEVTCVVVDVSHEDPEVKFNWYVDGVEVHNAKTKPREEQYNSTYRVVSVLTVLHQDWLNGKEYKCKVSNKALPAPIEKTISKAKGQPREPQVCTLPPSRDELTKNQVSLSCAVKGFYPSDIAVEWESNGQPENNYKTTPPVLDSDGSFFLVSKLTVDKSRWQQGNVFSCSVMHEALHNHYTQKSLSLSPGWSHPQFEK
B9: DGL642 (bispecific antibody)
chain 1: B8 chain 2 with A99S, V100N, A101G, A102S, M105S, F106T, W107Y, G108P, Q111L
chain 2: not shown
B10: DGL643 (bispecific antibody)
chain 1: B8 chain 2 with A99S, V100N, A101G, A102S, M105S, F106D, W107Y, G108P, Q111L
chain 2: not shown
B11: DGL650 (bispecific antibody)
chain 1: B8 chain 2 with N31L, S55T, M105F
chain 2: not shown
B12: DGL630 (bispecific antibody)
chain 1: not shown
chain 2: B8 chain 2
B13: DGL621 (bispecific antibody)
chain 1: not shown
chain 2: B8 chain 2
B14: DGL622 (bispecific antibody)
chain 1: not shown
chain 2: B8 chain 2
B15: DGL646 (bispecific antibody)
chain 1: B8 chain 2 with A101G, G103S, G104T, M105V, F106Y, W107F
chain 2: not shown
B16: DGL623 (bispecific antibody)
chain 1: not shown
chain 2: B8 chain 2
B17: DGL632 (bispecific antibody)
chain 1: not shown
chain 2: B8 chain 2
B18: DGL735 (bispecific antibody)
chain 1: EVQLLESGGGLVQPGGSLRLSCAASGFTFSDYWMTWIRQAPGKGLEWVSSISGGTTYYADSRKGRFTISRDNSENTLYLQMNSLRAEDTAVYYCARDFGVSGWFGQYGMDVWGQGTLVTVSSGGGGSGGGGSGGGGSQSVLTQPPSASGTPGQRVTISCTGSSSNIGAGYDVHWYQQLPGTAPKLLIYRSNQRPSGVPDRFSGSKSGTSASLAISGLRSEDEADYYCSSYAGNYNLVFGGGTKLTVLDKTHTCPPCPAPEAAGAPSVFLFPPKPKDTLMISRTPEVTCVVVDVSHEDPEVKFNWYVDGVEVHNAKTKPREEQYNSTYRVVSVLTVLHQDWLNGKEYKCKVSNKALPAPIEKTISKAKGQPREPQVCTLPPSRDELTKNQVSLSCAVKGFYPSDIAVEWESNGQPENNYKTTPPVLDSDGSFFLVSKLTVDKSRWQQGNVFSCSVMHEALHNHYTQKSLSLSPGWSHPQFEK
chain 2: not shown
B19: DGL860 (bispecific antibody)
chain 1: not shown
chain 2: B18 chain 1 with W33Y, T35N, T55S, R62V, S101A, Y107F
B20: DGL862 (bispecific antibody)
chain 1: not shown
chain 2: B18 chain 1 with W33Y, T35N, T55S, R62V, S101A, Y107F
B21: DGL867 (bispecific antibody)
chain 1: not shown
chain 2: B18 chain 1 with W33Y, T35N, T55S, R62V, S101A, Q106Y
B22: DGL861 (bispecific antibody)
chain 1: not shown
chain 2: B18 chain 1 with W33Y, T35N, T55S, R62V, S101A, Y107F
B23: DGL864 (bispecific antibody)
chain 1: not shown
chain 2: B18 chain 1 with Y32S, W33Y, T35S, T55S, R62V, S101A, W103Y
B24: DGL863 (bispecific antibody)
chain 1: not shown
chain 2: B18 chain 1 with Y32S, W33Y, T35S, T55S, R62V, S101A, W103Y
B25: DGL865 (bispecific antibody)
chain 1: not shown
chain 2: B18 chain 1 with Y32S, W33Y, T35S, T55S, R62V, S101A, W103Y
B26: DGL868 (bispecific antibody)
chain 1: not shown
chain 2: B18 chain 1 with W33Y, T35N, T55S, R62V, S101A, Q106Y
B27: DGL866 (bispecific antibody)
chain 1: not shown
chain 2: B18 chain 1 with W33Y, T35N, T55S, R62V, S101A, Q106Y

What follows are binders tested against ALK-1/BMPR-2 receptor pair of the PathHunter U2Os dimerization cells (DiscoverX 93-0962C3) (UniProt P37023 22-503; Q13873 27-1038) (assay: cell-based or functional assay).
Chain of ALK-1/BMPR-2 receptor pair of the PathHunter U2Os dimerization cells (DiscoverX 93-0962C3) (P37023 22-503, chain 1 of 2): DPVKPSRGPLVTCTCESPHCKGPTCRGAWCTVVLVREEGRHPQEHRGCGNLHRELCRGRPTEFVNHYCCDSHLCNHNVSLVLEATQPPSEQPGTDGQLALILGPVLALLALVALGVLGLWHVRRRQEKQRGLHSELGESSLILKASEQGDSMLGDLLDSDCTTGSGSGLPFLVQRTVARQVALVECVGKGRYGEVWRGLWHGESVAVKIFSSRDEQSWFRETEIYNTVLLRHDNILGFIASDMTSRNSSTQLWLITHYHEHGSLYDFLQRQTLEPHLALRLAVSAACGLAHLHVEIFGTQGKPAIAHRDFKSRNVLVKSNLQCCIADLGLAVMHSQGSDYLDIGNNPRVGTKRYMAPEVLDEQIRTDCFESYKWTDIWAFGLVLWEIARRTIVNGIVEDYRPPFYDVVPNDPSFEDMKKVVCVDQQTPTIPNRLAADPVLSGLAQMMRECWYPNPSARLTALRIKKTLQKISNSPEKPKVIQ
Chain of ALK-1/BMPR-2 receptor pair of the PathHunter U2Os dimerization cells (DiscoverX 93-0962C3) (Q13873 27-1038, chain 2 of 2): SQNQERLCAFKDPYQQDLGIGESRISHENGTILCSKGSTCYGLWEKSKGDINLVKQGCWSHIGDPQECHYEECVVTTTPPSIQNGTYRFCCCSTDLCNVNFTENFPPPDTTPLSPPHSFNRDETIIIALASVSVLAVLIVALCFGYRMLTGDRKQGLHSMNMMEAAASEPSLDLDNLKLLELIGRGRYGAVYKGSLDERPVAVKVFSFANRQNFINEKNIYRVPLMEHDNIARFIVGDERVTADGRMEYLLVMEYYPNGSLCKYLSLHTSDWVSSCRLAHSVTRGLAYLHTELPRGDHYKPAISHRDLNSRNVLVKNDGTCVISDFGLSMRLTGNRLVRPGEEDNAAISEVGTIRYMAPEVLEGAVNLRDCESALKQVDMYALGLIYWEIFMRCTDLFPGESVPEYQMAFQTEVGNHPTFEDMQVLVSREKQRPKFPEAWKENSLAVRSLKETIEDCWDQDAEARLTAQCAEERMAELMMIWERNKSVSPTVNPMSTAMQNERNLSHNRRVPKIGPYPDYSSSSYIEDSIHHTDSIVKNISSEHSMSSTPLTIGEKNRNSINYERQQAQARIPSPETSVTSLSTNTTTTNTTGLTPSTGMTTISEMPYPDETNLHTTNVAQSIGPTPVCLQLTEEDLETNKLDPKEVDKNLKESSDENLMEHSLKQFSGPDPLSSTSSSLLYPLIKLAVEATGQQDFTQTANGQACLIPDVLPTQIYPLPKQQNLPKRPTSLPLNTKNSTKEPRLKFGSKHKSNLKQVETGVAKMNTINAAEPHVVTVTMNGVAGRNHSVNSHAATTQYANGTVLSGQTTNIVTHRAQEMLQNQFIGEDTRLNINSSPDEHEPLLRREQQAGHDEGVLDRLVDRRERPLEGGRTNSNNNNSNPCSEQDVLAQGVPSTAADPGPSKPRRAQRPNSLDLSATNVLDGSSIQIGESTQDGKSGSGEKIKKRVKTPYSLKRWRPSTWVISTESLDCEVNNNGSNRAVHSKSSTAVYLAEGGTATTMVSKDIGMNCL

Row | % Emax BMP9 [%] | Emax (RLU) | Binder
1 | 41 | 752000 | B1
2 | 77 | 1.2e+06 | B2
3 | 73 | 1.13e+06 | B3
4 | 83 | 1.53e+06 | B4
5 | 80 | 1.47e+06 | B5
6 | 20 | 362000 | B6
7 | 21 | 382000 | B7
8 | 13 | 470000 | B8
9 | 14 | 255000 | B9
10 | 13 | 246000 | B10
11 | 43 | 801000 | B11
12 | 5 | 168000 | B12
13 | 30 | 1.09e+06 | B13
14 | 25 | 936000 | B14
15 | 18 | 333000 | B15
16 | 30 | 1.11e+06 | B16
17 | 4 | 130000 | B17
18 | 68 | 1.06e+06 | B18
19 | 79 | 2.01e+06 | B19
20 | 83 | 2.13e+06 | B20
21 | 58 | 1.48e+06 | B21
22 | 81 | 2.08e+06 | B22
23 | 22 | 553000 | B23
24 | 24 | 604000 | B24
25 | 30 | 755000 | B25
26 | 67 | 1.71e+06 | B26
27 | 45 | 1.15e+06 | B27

What follows are binders tested against human ALK1 protein (Sino Biological, #10066-H08H) (human, UniProt P37023 22-118) (assay: ELISA, coated human ALK1).
Chain of human ALK1 protein (Sino Biological, #10066-H08H) (P37023 22-118 limits assumed): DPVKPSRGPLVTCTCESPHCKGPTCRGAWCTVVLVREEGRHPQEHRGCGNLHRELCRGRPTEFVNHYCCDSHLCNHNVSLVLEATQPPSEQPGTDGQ
Description: These binders were then tested using an ELISA assay. High binding plates (Corning, 9018) were coated with either 2 μg/ml of human BMPRII protein (Sino Biological, #10551-H08H) or 2 μg/ml of human ALK1 protein (Sino Biological, #10066-H08H) overnight at 4C. The plates were then washed three times with wash buffer (R&D Systems, WA126). […] The plates were then washed three times with wash buffer and DGL antibodies or controls, which were diluted with PBS and 0.1% BSA. The antibodies were incubated for one hour at room temperature and then the plates were washed three times with wash buffer. The plates were then incubated with mouse anti-human IgG Fc secondary—HRP (diluted with PBS/0.1% BSA); 100 ul per well at 2 μg/ml and incubated at room temperature for one hour. The plate was washed three times in wash buffer and then 100 ul TMB (R&D Systems, DY9998B, substrate reagent pack). After the wells turn blue, 50 ul of stop solution (R&D Systems, DY994) was added to each well and the absorbance of the plate was read at 450 nm. results can be found in Table 8.

Row | Abs450 1 nM | Abs450 10 nM | Abs450 100 nM | Binder
28 | 0.09 | 0.46 | 1.39 | B1
29 | 0.09 | 0.47 | 1.4 | B4
30 | 0.05 | 0.22 | 1.02 | B5
31 | 0.11 | 0.56 | 1.45 | B6
32 | 0.16 | 0.77 | 1.48 | B7
33 | 0.07 | 0.19 | 0.7 | B8
34 | 0.08 | 0.09 | 0.5 | B9
35 | 0.04 | 0.13 | 0.71 | B10
36 | 0.08 | 0.15 | 0.65 | B11
37 | 0.07 | 0.07 | 0.08 | B12
38 | 0.17 | 0.95 | 1.58 | B13
39 | 0.15 | 0.75 | 1.58 | B14
40 | 0.06 | 0.15 | 0.8 | B15
41 | 0.14 | 0.61 | 1.43 | B16
42 | 0.06 | 0.05 | 0.06 | B17
